Consider six molecules from patent US20220363752A1 (VERSEAU THERAPEUTICS, published 2022).

Changes are numbered by the printed parent chain. Primed or numbered codes have the meaning given here. Biotin′ = not defined here

As a reminder, the EC50 is the concentration at which the effect is half-maximal.

Assay [1] deals with T1, His-tagged cynomolgus monkey LRRC25 extracellular domain protein, cyno LRRC25-His (cynomolgus monkey).
T1 construct: The entry holds the extracellular domain, a GSG linker and the His tag
T1 sequence (chain, as listed by the source limits assumed): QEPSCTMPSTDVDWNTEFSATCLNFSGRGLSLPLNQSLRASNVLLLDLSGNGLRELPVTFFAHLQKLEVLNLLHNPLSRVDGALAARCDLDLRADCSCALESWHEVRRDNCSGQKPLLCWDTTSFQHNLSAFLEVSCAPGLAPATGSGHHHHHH
Description: ELISA, plate-immobilized antigen. The method, boiled down:
(§1)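 Wells coated overnight at 4 °C with 1 ug/mL antigen in PBS pH 7.4. Antibodies titrated from 500 nM in 3-fold steps in 1% skimmed milk/PBS, 1 h at room temperature, then HRP anti-human IgG; TMB read at A450 nm and EC50 taken from binding curves.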
A general note: An ELISA detects its analyte on a solid surface through an enzyme-linked reagent.

Assay [2] deals with T2, His-tagged human LRRC25 extracellular domain protein, human LRRC25-His (human, UniProt Q8N386 21-165).
T2 construct: The entry holds the extracellular domain, a GSG linker and the His tag; also called LRRC25(ECD)-HIS
T2 sequence (Q8N386 other isoform, or with tags, fused parts or gaps): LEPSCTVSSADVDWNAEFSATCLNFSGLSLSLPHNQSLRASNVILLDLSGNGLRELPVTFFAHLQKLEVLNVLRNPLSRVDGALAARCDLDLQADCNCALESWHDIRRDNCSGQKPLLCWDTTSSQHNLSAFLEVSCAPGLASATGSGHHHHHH
Nature of the assay: ELISA, plate-immobilized antigen. The method in brief:
as §1

In assay [3] the target is T3, LRRC25(51-69) biotin peptide (human, not fully specified; N-terminal acetyl; C-terminal GGK-Biotin).
T3 peptide: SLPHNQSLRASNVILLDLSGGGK
Nature of the assay: peptide ELISA. The method in brief: (§2)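 Plate-bound streptavidin captured biotinylated 16- to 20-mer LRRC25 ECD overlapping peptides (2 ug/mL), with biotinylated human LRRC25-His as positive control. Chimeric anti-LRRC25 antibodies at 20 nM, 45 min at 37° C in duplicate; detection by HRP anti-human IgG and TMB at A450 nm.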

Assay [4] addresses T4, LRRC25(126-145) biotin peptide (human, not fully specified; N-terminal acetyl; C-terminal GGK-Biotin; native Cys changed to Ser).
T4 peptide: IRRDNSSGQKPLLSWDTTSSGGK
Nature of the assay: peptide ELISA. The method in brief:
as §2

Assay [5] deals with T5, LRRC25(81-100) biotin peptide (human, not fully specified; N-terminal acetyl; C-terminal GGK-Biotin).
T5 peptide: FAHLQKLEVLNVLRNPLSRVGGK
Description: peptide ELISA. The method in brief:
as §2

Assay [6] has as its target T6, LRRC25(111-130) biotin peptide (human, not fully specified; N-terminal acetyl; C-terminal GGK-Biotin; native Cys changed to Ser).
T6 peptide: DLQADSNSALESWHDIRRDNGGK
Description: peptide ELISA. The method in brief: as §2

Assay [7] has as its target T7, LRRC25(150-165) biotin peptide (human).
T7 peptide: Ac-SAFLEVSSAPGLASATGG-{Biotin′}
Nature of the assay: peptide ELISA. The method in brief:
as §2

Assay [8] deals with T8, LRRC25(66-85) biotin peptide (human, not fully specified; N-terminal acetyl; C-terminal GGK-Biotin).
T8 peptide: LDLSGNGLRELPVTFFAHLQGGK
Nature of the assay: peptide ELISA. The method, boiled down: as §2

Assay [9] has as its target T9, LRRC25(21-40) biotin peptide (human, not fully specified; N-terminal NH2; C-terminal GGK-Biotin; native Cys changed to Ser).
T9 peptide: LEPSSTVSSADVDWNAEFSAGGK
Nature of the assay: peptide ELISA. The method, boiled down: as §2

For assay [10], the target named is T10, LRRC25(96-115) biotin peptide (human, not fully specified; N-terminal acetyl; C-terminal GGK-Biotin; native Cys changed to Ser).
T10 construct: also called Biotin LRRC25 (96-115) peptide
T10 peptide: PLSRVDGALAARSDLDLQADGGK
Nature of the assay: peptide ELISA. The method, boiled down: as §2

The target in assay [11] is T11, LRRC25(141-159) biotin peptide (human, not fully specified; N-terminal acetyl; C-terminal GGK-Biotin; native Cys changed to Ser).
T11 peptide: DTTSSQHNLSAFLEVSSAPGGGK
Nature of the assay: peptide ELISA. The method in brief: as §2

For assay [12], the target named is T12, LRRC25(36-55) biotin peptide (human, not fully specified; N-terminal NH2; C-terminal GGK-Biotin; native Cys changed to Ser).
T12 peptide: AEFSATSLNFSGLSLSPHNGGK
Nature of the assay: peptide ELISA. The method in brief: as §2

Assay [13] deals with T13, biotinylated human LRRC25-His protein (human, UniProt Q8N386 21-165, biotinylated (sites not given)).
T13 construct: also called Biotin LRRC25-His; biotinylated LRRC25 protein
T13 sequence (Q8N386 other isoform, or with tags, fused parts or gaps): as the sequence (Q8N386 other isoform, or with tags, fused parts or gaps) above
Nature of the assay: ELISA, 20 nM antibody, biotinylated antigen on streptavidin plate. The method in brief:
as §2

The target in assay [14] is T10, LRRC25(96-115) biotin peptide. Described as above. The method, boiled down: as §2

B1: anti-LRRC25 chimeric antibody 2C07 (antibody, human IgG4, V domains shown)
VH: QITLKESGPGILQPSQTLSLTCSFSGFSLTTSGMGVSWIRQPSGKGLEWLAHIYWDDDKRYNPSLRSRLTISKDTSSNQVVLKLTNVDTADTATYYCARRARDYYNSGHWYFDVWGAGTTVTVSS
VL: DVVMTQTPKSMSMSVGERVTLSCKASENVGTYVSWYQQKPDQSPKLLIFGASNRYTGVPDRFTGSGSATDFTLTISSVQAEDLADYHCGQTYSFPFTFGSGTKLEIKR
On to B1, for which the EC50 in [1] was determined as 0.65 nM; in [2], 0.39 nM. Further, the binding result in assay [3], in assay [4], in assay [5], in assay [6], in assay [7] and in assay [8] was “no binding (tested: 20 nM)” each time. The binding result in [9], in assay [10], in assay [11] and in assay [12] was “no binding (tested: 20 nM)” throughout. In addition, the “absorbance (A450)” value in [13] was determined as 2.6 A450; in [14] it was 0.054 A450.

B2: anti-LRRC25 chimeric antibody 1A01 (antibody, human IgG4, V domains shown)
VH: EVKLLESGGGLVKPGGSLKLSCAASGFTFSSYAMSWVRQTPEKRLEWVASISRGGNTYYPDSVKGRFTISRDNARNILYLQMSSLRSEDTAMYYCARGNYGNSPFAYWGQGTLVTVSA
VL: DIVMTQSPASLAVSLGQRATISCRASKSVSTSGYSYMHWYQQKPGQPPKLLIYLASNLESGVPARFSGSGSGTDFTLNIHPVEEEDAATYYCQHSRELPFTFGSGTKLEIKR
notes: also called mAb 1A01
As to B2, the EC50 in [1] is greater than 500 nM; in assay [2] it was 4.1 nM. For the same molecule, the binding result in [3], in assay [4], in [5], in [6], in assay [7] and in assay [8] was “no binding (tested: 20 nM)” each time. Moreover, the binding result in assay [9], in [11] and in [12] was “no binding (tested: 20 nM)” throughout. In addition, the “absorbance (A450)” value in assay [13] is 0.456 A450; in assay [14] it was 2.33 A450.

B3: anti-LRRC25 chimeric antibody 1C10 (antibody, human IgG4, V domains shown)
VH: B2 VH with V2E, L5D, Y93F, N99D, N102S, P104L
VL: DIVMTQAAFSNPVTLGTSASISCRSSKSLLHSNGITYLYWYLQKPGQSPQLLIYQMSNLASGVPDRFSSSGSGTDFTLRISRVEAEDVGVYYCAQNLELPFTFGSGTKLEIKR
With B3, the EC50 is roughly 1000 nM in assay [1] and 73.4 nM in assay [2]. Also, the binding result in assay [3], in [4], in assay [5], in assay [6], in assay [7] and in [8] was “no binding (tested: 20 nM)” each time. The binding result in assay [9], in [11] and in assay [12] was “no binding (tested: 20 nM)” in each case. For the same molecule, the “absorbance (A450)” value in [13] came to 0.421 A450; in [14], 0.334 A450.

B4: anti-LRRC25 chimeric antibody 1E11 (antibody, human IgG4, V domains shown)
VH: EVQLLETGGGLVKPGGSLKLSCAASGFTFSSSAMSWVRQTPEKRLEWVTSISRGGNTYYPDSVKGRFTISRDNARNILYLQMSSLRSEDTAMYYCARGQELRLFAYWGQGTLVTVSA
VL: B3 VL with A7D
On to B4, for which the values for the EC50 in [1] and in assay [2] were roughly 500 nM and 0.58 nM, respectively. Also, the binding result in assay [3], in assay [4], in [5], in assay [6], in assay [7] and in assay [8] was “no binding (tested: 20 nM)” in each case. For the same molecule, the binding result in [9], in assay [11] and in [12] was “no binding (tested: 20 nM)” each time. Further, the “absorbance (A450)” value in [13] was 1.89 A450; in [14] it was 2.65 A450.

B5: anti-LRRC25 chimeric antibody 1B03 (antibody, human IgG4, V domains shown)
VH: B4 VH with L5V, T7S, S32Y, T49A, V63M
VL: QILLTQSPASLAVSLGQRATISCRASESVDSYGNSFMHWYQQKPGQPPKLLIYLASNLESGVPARFSGSGSRTDFTLTIDPVEADDAATYYCQQNNEDPWTFGGGTKLEIKR
As to B5, the values for the EC50 in assay [1] and in assay [2] were 42.5 nM and 1.3 nM, respectively. The binding result in assay [3], in assay [4], in assay [5], in assay [6], in [7] and in assay [8] was “no binding (tested: 20 nM)” throughout. Moreover, the binding result in assay [9], in assay [11] and in assay [12] was “no binding (tested: 20 nM)” throughout. The entries for the “absorbance (A450)” value in assay [13] and in assay [14] were 1.88 A450 and 1.64 A450, respectively.

B6: anti-LRRC25 chimeric antibody 2A07 (antibody, human IgG4, V domains shown)
VH: EVKLDESGGGLVQPGGSLKLSCATSGFTFSDYYMYWVRQTPEKRLEWVAYISNGGGSTYYPDTVKGRFTISRDNAKNTLYLQMSRLKSEDTAMYYCARSTAVSQMDYWGQGTSVTVSS
VL: DIVLTQSPAIMSASPGEKVTLTCSASSSVRSSYLNWYQQKPGSSPKLWIHGTSNLASGVPARFSGSGSGTSYSLTISSMEAEDAASYFCHQWSSYPPTFGAGTKLELKR
As for B6, the EC50 in [1] was 4.6 nM; in assay [2], 0.63 nM. Moreover, the binding result in [3], in assay [4], in assay [5], in [6], in [7] and in assay [8] was “no binding (tested: 20 nM)” each time. Moreover, the binding result in [9], in assay [10], in assay [11] and in [12] was “no binding (tested: 20 nM)” throughout. Also, the “absorbance (A450)” value turned out to be 2.44 A450 in [13] and 0.052 A450 in assay [14].
